Assay results as given in US11780907B2, “Human antibodies to influenza hemagglutinin” (Regeneron Pharmaceuticals, Inc., priority 2018, dated 2023).
Where two headings read alike, the source gives them in different places.

Legend:
[1] = tested on: A/Wisconsin/67/2005 (H3N2)-overexpressing 3T3 cells; conditions: read-out: EC50 FcγRIIIA activation (ADCC-Glo reporter bioassay)
[2] = tested on: A/Wisconsin/67/2005 (H3N2)-overexpressing 3T3 cells; conditions: read-out: EC50 ADCC with human donor PBMCs

B1: H1H14612N2: fully human anti-influenza A group 2 HA monoclonal antibody, HCVR/LCVR SEQ ID NOs: 18/26 (antibody, V domains shown)
VH: EVQLVESGGGLVKPGGSLRLSCAASGFSFSGFSMNWVRQAPGKGLEWVSSISTSGNYMYYADSVKGRFTISRDNAKKSFSLQMNSLRAEDSAIYYCARGGGYNWNLFDYWGQGSLVTVSS
VL: EIVLTQSPGTLSLSPGERATLSCRASQSLNSNYLAWYQQKPGQAPRLLIYGASSRATGIPDRFSGSGSGADFTLTISRLESEDFAVYYCQQYGNSPLTFGGGTKVEIK
With B1 the EC50 [1] was 0.688 nM and the EC50 [2] was 0.176 nM.
